In paper PMC3947485:

Target: TRAP1 from zebrafish (D. rerio), full-length mature protein (D. rerio)
Assay: crystal structure

stoichiometry N: 2
Substance: TRAP1 from zebrafish (D. rerio), full-length mature protein (natural protein)
